Measured values taken from PMC2965237 (Nucleic Acids Research, 2010).

B1: RdgC Δfinger (P76G, Δ77–115, L116T) (natural protein)
chain: not shown
B2: RdgC protein (Escherichia coli), wild type (natural protein)
chain: not shown
B3: RdgC Δfinger R118C (natural protein)
chain: not shown
B4: RdgC R118C (natural protein)
chain: not shown

Molecular target: the molecule itself
Assay: SEC

Protein	binding result	stoichiometry N
B1	binds	
B2		2
B3	binds	
B4	binds	
